{"source": "paper PMC4800717", "about": "“Hxt13, Hxt15, Hxt16 and Hxt17 from Saccharomyces cerevisiae represent a novel type of polyol transporters” (Scientific Reports, 2016)", "key": {"[1]": {"substrate": "OC[C@@H](O)[C@@H](O)[C@H](O)[C@@H](O)CO", "experiment": "cells, lysate or membranes", "type": "cell-based, Saccharomyces cerevisiae", "settings": "labelled compound, EBY.VW4000 co-expressing SOR1, 30 °C, facilitated transport"}, "[2]": {"substrate": "OC[C@@H](O)[C@@H](O)[C@H](O)[C@H](O)CO", "experiment": "cells, lysate or membranes", "type": "cell-based, Saccharomyces cerevisiae", "settings": "labelled compound, EBY.VW4000 co-expressing YNR073C, 30 °C"}, "[3]": {"substrate": "OC[C@@H](O)[C@@H](O)[C@H](O)[C@H](O)CO", "experiment": "NAD+ reduction, crude extract of overexpressing yeast", "type": "biochemical, Saccharomyces cerevisiae", "settings": "1.66 mM NAD+, 60 mM HEPES-NaOH pH 7.4", "from_the_text": "NAD+ reduction, crude extract of overexpressing yeast on YNR073C"}, "[4]": {"substrate": "OC[C@@H](O)[C@@H](O)[C@H](O)[C@H](O)CO", "experiment": "NAD+ reduction, crude extract of overexpressing yeast", "type": "biochemical, Saccharomyces cerevisiae", "settings": "1.66 mM NAD+, 60 mM HEPES-NaOH pH 7.4", "from_the_text": "NAD+ reduction, crude extract of overexpressing yeast on Dsf1", "remark": "listed apart in the source"}, "[5]": {"substrate": "OC[C@@H](O)[C@@H](O)[C@H](O)[C@@H](O)CO", "experiment": "NAD+ reduction, crude extract of overexpressing yeast", "type": "biochemical, Saccharomyces cerevisiae", "settings": "1.66 mM NAD+, 60 mM HEPES-NaOH pH 7.4", "from_the_text": "(§1) NAD+ reduction, crude extract of overexpressing yeast on Sor1"}, "[6]": {"substrate": "OC[C@@H](O)[C@@H](O)[C@H](O)[C@H](O)CO", "experiment": "NAD+ reduction, crude extract of overexpressing yeast", "type": "biochemical, Saccharomyces cerevisiae", "settings": "1.66 mM NAD+, 60 mM HEPES-NaOH pH 7.4", "from_the_text": "as §1", "remark": "listed apart in the source"}, "[7]": {"substrate": "OC[C@@H](O)[C@@H](O)[C@H](O)[C@@H](O)CO", "experiment": "NAD+ reduction, crude extract of overexpressing yeast", "type": "biochemical, Saccharomyces cerevisiae", "settings": "1.66 mM NAD+, 60 mM HEPES-NaOH pH 7.4", "from_the_text": "(§2) NAD+ reduction, crude extract of overexpressing yeast on Sor2", "remark": "listed apart in the source"}, "[8]": {"substrate": "OC[C@@H](O)[C@@H](O)[C@H](O)[C@H](O)CO", "experiment": "NAD+ reduction, crude extract of overexpressing yeast", "type": "biochemical, Saccharomyces cerevisiae", "settings": "1.66 mM NAD+, 60 mM HEPES-NaOH pH 7.4", "from_the_text": "as §2", "remark": "listed apart in the source"}}, "data": [{"protein": "Hxt15 (Saccharomyces cerevisiae S288C) (protein, full-length ORF, p426H7 plasmid, expressed in hxt0 yeast EBY.VW4000 or AFY10 with a polyol dehydrogenase) MASEQSSPEINADNLNSSAADVHVQPPGEKEWSDGFYDKEVINGNTPDAPKRGFLGYLIIYLLCYPVSFGGFLPGWDSGITAGFINMDNFKMNFGSYKHSTGEYYLSNVRMGLLVAMFSVGCSIGGVAFARLADTLGRRLAIVIVVLVYMVGAIIQISSNHKWYQYFVGKIIYGLGAGGCSVLCPMLLSEIAPTDLRGGLVSLYQLNMTFGIFLGYCSVYGTRKYSNTAQWRIPVGLCFLWALIIIVGMLLVPESPRYLIECERHEEACVSIAKINKVSPEDPWVLKQADEINAGVLAQRELGEASWKELFSVKTKVLQRLITGILVQTFLQLTGENYFFFYGTTIFKSVGLTDGFETSIVLGTVNFFSTIIAVMVVDKIGRRKCLLFGAASMMACMVIFASIGVKCLYPHGQDGPSSKGAGNAMIVFTCFYIFCFATTWAPVAYIVVAESFPSKVKSKAMSISTAFNWLWQFLIGFFTPFITGSIHFYYGYVFVGCLVAMFLYVFFFLPETIGLSLEEIQLLYEEGIKPWKSASWVPPSRRGASSRETEAKKKSWKEVLKFPKSFN", "values": [{"measurement": "Km", "setting": "[1]", "value": "38.9 ± 8.6", "unit": "mM"}, {"measurement": "Km", "setting": "[2]; facilitated transport", "value": "11.4 ± 2.7", "unit": "mM"}]}, {"protein": "YNR073C (Saccharomyces cerevisiae S288C) (protein, full-length ORF, p425H7 multicopy plasmid, overexpressed in yeast CEN.PK2-1C; crude extract) MTKSDETTATSLNAKTLKSFESTLPIPTYPREGVKQGIVHLGVGAFHRSHLAVFMHRLMQEHHLKDWSICGVGLMKADALMRDAMKAQDCLYTLVERGIKDTNAYIVGSITAYMYAPDDPRAVIEKMANPDTHIVSLTVTENGYYHSEATNSLMTDAPEIINDLNHPEKPDTLYGYLYEALLLRYKRGLTPFTIMSCDNMPQNGVTVKTMLVAFAKLKKDEKFAAWIEDKVTSPNSMVDRVTPRCTDKERKYVADTWGIKDQCPVVAEPFIQWVLEDNFSDGRPPWELVGVQVVKDVDSYELMKLRLLNGGHSAMGYLGYLAGYTYIHEVVNDPTINKYIRVLMREEVIPLLPKVPGVDFEEYTASVLERFSNPAIQDTVARICLMGSGKMPKYVLPSIYEQLRKPDGKYKLLAVCVAGWFRYLTGVDMNGKPFEIEDPMAPTLKAAAVKGGKDPHELLNIEVLFSPEIRDNKEFVAQLTHSLETVYDKGPIAAIKEILDQV", "values": [{"measurement": "Km", "setting": "[3]", "value": "3.6 ± 0.5", "unit": "mM"}, {"measurement": "Vmax", "setting": "[3]", "value": "0.40 ± 0.02 umol substrate converted per minute per"}]}, {"protein": "Dsf1 (Saccharomyces cerevisiae S288C) (protein, full-length ORF, p425H7 multicopy plasmid, overexpressed in yeast CEN.PK2-1C; crude extract) MTKSDETTATSLNAKTLKSFESTLPIPTYPREGVKQGIVHLGVGAFHRSHLAVFMHRLMQEHHLKDWSICGVGLMKADALMRDAMKAQDCLYTLVERGIKDTNAYIVGSITAYMYAPDDPRAVIEKMANPDTHIVSLTVTENGYYHSEATNSLMTDAPEIINDLNHPEKPDTLYGYLYEALLLRYKRGLTPFTIMSCDNMPQNGVTVKTMLVAFAKLKKDEKFAAWIEDKVTSPNSMVDRVTPRCTDKERKYVADTWGIKDQCPVVAEPFIQWVLEDNFSDGRPPWELVGVQVVKDVDSYELMKLRLLNGGHSAMGYLGYLAGYTYIHEVVNDPTINKYIRVLMREEVIPLLPKVPGVDFEEYTASVLERFSNPAIQDTVARICLMGSGKMPKYVLPSIYEQLRKPDGKYKLLAVCVAGWFRYLTGVDMNGKPFEIEDPMAPTLKAAAVKGGKDPHELLNIEVLFSPEIRDNKEFVAQLTHSLETVYDKGPIAAIKEILDQV", "values": [{"measurement": "Km", "setting": "[4]", "value": "2.9 ± 0.3", "unit": "mM"}, {"measurement": "Vmax", "setting": "[4]", "value": "0.90 ± 0.02 umol substrate converted per minute per"}]}, {"protein": "Hxt13 (Saccharomyces cerevisiae S288C) (protein, full-length ORF, p426H7 plasmid, expressed in hxt0 yeast EBY.VW4000 with YNR073C or SOR1) MSSAQSSIDSDGDVRDADIHVAPPVEKEWSDGFDDNEVINGDNVEPPKRGLIGYLVIYLLCYPISFGGFLPGWDSGITAGFINMDNFKMNFGSYKHSTGEYYLSNVRMGLLVAMFSIGCAIGGLIFARLADTLGRRLAIVIVVLVYMVGAIIQISSNHKWYQYFVGKIIYGLGAGGCSVLCPMLLSEIAPTDLRGGLVSLYQLNMTFGIFLGYCSVYGTRKYDNTAQWRVPLGLCFLWALIIIIGMLLVPESPRYLIECERHEEARASIAKINKVSPEDPWVLKQADEINAGVLAQRELGEASWKELFSVKTKVLQRLITGILVQTFLQLTGENYFFFYGTTIFKSVGLTDGFETSIVLGTVNFFSTIIAVMVVDKIGRRKCLLFGAAGMMACMVIFASIGVKCLYPHGQDGPSSKGAGNAMIVFTCFYIFCFATTWAPVAYIVVAESFPSKVKSRAMSISTACNWLWQFLIGFFTPFITGSIHFYYGYVFVGCLVAMFLYVFFFLPETIGLSLEEIQLLYEEGIKPWKSASWVPPSRRGISSEESKTEKKDWKKFLKFSKNSD", "values": [{"measurement": "Km", "setting": "[1]", "value": "20.4 ± 2.4", "unit": "mM"}, {"measurement": "Km", "setting": "[2]; facilitated transport", "value": "16.7 ± 2.9", "unit": "mM"}]}, {"protein": "Sor1 (Saccharomyces cerevisiae S288C) (protein, full-length ORF, p425H7 multicopy plasmid, overexpressed in yeast CEN.PK2-1C; crude extract) MSQNSNPAVVLEKVGDIAIEQRPIPTIKDPHYVKLAIKATGICGSDIHYYRSGGIGKYILKAPMVLGHESSGQVVEVGDAVTRVKVGDRVAIEPGVPSRYSDETKEGRYNLCPHMAFAATPPIDGTLVKYYLSPEDFLVKLPEGVSYEEGACVEPLSVGVHSNKLAGVRFGTKVVVFGAGPVGLLTGAVARAFGATDVIFVDVFDNKLQRAKDFGATNTFNSSQFSTDKAQDLADGVQKLLGGNHADVVFECSGADVCIDAAVKTTKVGGTMVQVGMGKNYTNFPIAEVSGKEMKLIGCFRYSFGDYRDAVNLVATGKVNVKPLITHKFKFEDAAKAYDYNIAHGGEVVKTIIFGPE", "values": [{"measurement": "Km", "setting": "[5]", "value": "11.8 ± 1.4", "unit": "mM"}, {"measurement": "Vmax", "setting": "[5]", "value": "0.40 ± 0.01 umol substrate converted per minute per"}, {"measurement": "Km", "setting": "[6]", "value": "89.0 ± 37.5", "unit": "mM"}, {"measurement": "Vmax", "setting": "[6]", "value": "0.10 ± 0.02 umol substrate converted per minute per"}]}, {"protein": "Sor2 (Saccharomyces cerevisiae S288C) (protein, full-length ORF, p425H7 multicopy plasmid, overexpressed in yeast CEN.PK2-1C; crude extract) MSQNSNPAVVLEKVGDIAIEQRPIPTIKDPHYVKLAIKATGICGSDIHYYRSGGIGKYILKAPMVLGHESSGQVVEVGDAVTRVKVGDRVAIEPGVPSRYSDETKEGSYNLCPHMAFAATPPIDGTLVKYYLSPEDFLVKLPEGVSYEEGACVEPLSVGVHSNKLAGVRFGTKVVVFGAGPVGLLTGAVARAFGATDVIFVDVFDNKLQRAKDFGATNTFNSSQFSTDKAQDLADGVQKLLGGNHADVVFECSGADVCIDAAVKTTKVGGTMVQVGMGKNYTNFPIAEVSGKEMKLIGCFRYSFGDYRDAVNLVATGKVNVKPLITHKFKFEDAAKAYDYNIAHGGEVVKTIIFGPE", "values": [{"measurement": "Km", "setting": "[7]", "value": "15.1 ± 2.8", "unit": "mM"}, {"measurement": "Vmax", "setting": "[7]", "value": "0.5 ± 0.02 umol substrate converted per minute per"}, {"measurement": "Km", "setting": "[8]", "value": "98.4 ± 25.7", "unit": "mM"}, {"measurement": "Vmax", "setting": "[8]", "value": "0.05 ± 0.01 umol substrate converted per minute per"}]}, {"protein": "Hxt17 (Saccharomyces cerevisiae S288C) (protein, full-length ORF, p426H7 plasmid, expressed in hxt0 yeast EBY.VW4000 with YNR073C or SOR1) MQSSTESDRDIQDGPDADIHVAPPVEKEWSDGFDDNEVINGDNVEPPKRGLIGYLVIYLLCYPISFGGFLPGWDSGITAGFINMDNFKMNFGSYKHSTGEYYLSNVRMGLLVAMFSIGCAIGGLIFARLADTLGRRLAIVIVVLVYMVGAIIQISSNHKWYQYFVGKIIYGLGAGGCSVLCPMLLSEIAPTDLRGGLVSLYQLNMTFGIFLGYCSVYGTRKYDNTAQWRVPLGLCFLWTLIIIIGMLLVPESPRYLIECERHEEARASIAKINKVSPEDPWVLKQADEINAGVLAQRELGEASWKELFSVKTKVLQRLITGILVQTFLQLTGENYFFFYGTTIFKSVGLTDGFETSIVLGTVNFFSTIIAVMVVDKIGRRKCLLFGAAGMMACMVIFASIGVKCLYPHGQDGPSSKGAGNAMIVFTCFYIFCFATTWAPVAYIVVAESFPSKVKSRAMSISTACNWLWQFLIGFFTPFITGSIHFYYGYVFVGCLVAMFLYVFFFLPETIGLSLEEIQLLYEEGIKPWKSASWVPPSRRGIPSEESKTEKKDWKKFLKFSKGSD", "values": [{"measurement": "Km", "setting": "[2]", "value": "18.6 ± 4.3", "unit": "mM"}]}]}
